One molecule from patent US20260201030A1, “ANTIBODY, ANTIBODY-DRUG CONJUGATE THEREOF AND USE THEREOF” (EVOPOINT BIOSCIENCES CO., LTD., priority 2021, published 2026) can be followed below.

For experiment [1], the target named is T1, human Claudin18.2 (Homo sapiens, UniProt P56856).
T1 construct: expressed in transfected cells
Briefly: Cell-based ELISA affinity of humanized antibodies on L929-Claudin18.2 (human) cells. The note with it: L929-Claudin18.2 cells. It is filed as binding. In general terms: In an ELISA, binding on a coated surface is turned into a signal by an enzyme label.

Experiment [2] deals with HEK293T-Claudin18.2 (human) cells. Briefly: CDC activity, guinea pig serum killing experiment. In kind it is cell-based. The conditions noted are these: 20% guinea pig serum, 5 h. As to the method: CDC activity of the anti-human Claudin18.2 humanized monoclonal antibodies was detected by a guinea pig serum killing experiment. The experimental procedures were as follows: HEK293T-Claudin18.2 (human) cells were digested, collected by centrifugation, plated at 50000 cells/well, and incubated overnight. The supernatant was discarded, and 100 μL of each test antibody subjected to gradient dilution with DMEM+20% guinea pig serum (Beijing Bersee, BM361Y) was added to each well. The mixture was incubated at 37° C. for 5 h, and 20 μL of a CCK8 reagent (Suzhou Rhino Bio, QDY-003-D) was added to each well. The mixture was allowed to react for 1-4 h, and readings were taken at 450 nm on a microplate reader.

The next experiment deals with T2, human Claudin18.1 (Homo sapiens, UniProt P56856).
T2 construct: expressed in transfected cells
Nature of the experiment: FACS specificity of humanized antibodies on HEK293T-Claudin18.1 (human) cells. In kind it is binding. The note with it: antibody 50 μg/mL, APC secondary antibody. As to the method:
The specificity of the anti-human Claudin18.2 humanized monoclonal antibodies was determined by flow cytometry (FACS). The experimental procedures were as follows: HEK293T-Claudin18.1 (human) cells were digested, collected by centrifugation, washed three times with pre-cooled PBS, resuspended in 1% BSA (in PBS), and added to a 96-well pointed bottom plate at 3×10^5 cells/well. Each test antibody with a final concentration of 50 μg/mL was added, and the mixture was incubated at 4° C. for 1 h. The cells were washed three times with pre-cooled PBS, and then 1 μL of a fluorescent secondary antibody (APC: Biolegend-410712 or PE: BioLegend-410708) was added to each well. The mixture was incubated at 4° C. for 0.5 h, and the cells were washed three times with pre-cooled PBS, then resuspended, and assayed on a flow cytometer. For reference, anti-human Claudin18.1 positive control antibodies (positive control antibody-1 and positive control antibody-2) were included in the experiment.

Experiment [3] has as its target T1, human Claudin18.2. Nature of the experiment: Cell-based FACS affinity on HEK293T-Claudin18.2 (human) cells. In kind it is binding. Here is the method:
The affinity of the anti-human Claudin18.2 humanized antibodies was detected by flow cytometry. The experimental procedures were as follows: The adherent cultured HEK293T-Claudin18.2 (human), NUGC4-Claudin18.2 (human) and NUGC4 cells were digested, collected by centrifugation, and washed three times with pre-cooled PBS. The cells were resuspended in 1% BSA (in PBS) and added to a 96-well pointed bottom plate at 3×10^5 cells/well, with a volume of 50 μL per well. Each test antibody was diluted with 1% BSA (in PBS) (starting at 100 μg/mL, diluted in a 3-fold gradient, for 10 concentration points). The test antibody subjected to gradient dilution was added to the cells at 50 μL/well, and the mixture was well mixed and incubated at 4° C. for 1 h. The cells were collected by centrifugation, washed three times with pre-cooled PBS, and resuspended in 50 μL of 1% BSA (in PBS). 1 μL of a fluorescent secondary antibody (Biolegend-410712) was added to each well, and the mixture was well mixed and incubated at 4° C. for 0.5 h. The cells were collected by centrifugation, washed three times with pre-cooled PBS, resuspended in 200 μL of PBS, and assayed on a machine.

The test system of experiment [4] is HEK293T-Claudin18.2 (human) cells. Nature of the experiment: ADCC activity, fluorescein reporter system (Jurkat-NFAT-CD16a). The conditions noted are these: HEK293T-Claudin18.2 (human) target cells, 5 h. It is filed as cell-based. Here is the method: ADCC activity of the anti-human Claudin18.2 humanized monoclonal antibodies was detected by a fluorescein reporter system. The experiment was carried out using a Rhinogen® Bio-Glory One-Step Firefly Luciferase Assay kit (Suzhou Rhino Bio, RA-GL04), following the manufacturer's instructions. The experimental procedures were as follows: HEK293T-Claudin18.2 (human) cells were digested, collected by centrifugation, resuspended in DMEM+1% FBS, and then plated at 50000 cells/well. Jurkat-NFAT-CD16a cells were collected by centrifugation and resuspended in 1640+1% FBS, and then plated at 100000 cells/well. Each test antibody subjected to gradient dilution was added, and the mixture was incubated at 37° C. for 5 h. 50 μL of a Bio-Glory One-Step luciferase substrate was added to each well, and readings were taken on a microplate reader (MD, SpectraMax i3x).

For experiment [5], the target named is T1, human Claudin18.2. Briefly: Cell-based ELISA affinity on NUGC4 cells endogenously expressing human Claudin18.2. It is filed as binding.
Experiment [6] deals with cynomolgus monkey Claudin18.2. Briefly: FACS species affinity on HEK293T-Claudin18.2 (cynomolgus monkey) cells. In kind it is binding. The note with it: cell-based FACS. Here is the method: The affinity of the anti-human Claudin18.2 humanized monoclonal antibodies for Claudin18.2 of different species was determined by flow cytometry (FACS). The experimental procedures were as follows: HEK293T-Claudin18.2 (cynomolgus monkey) cells, HEK293T-Claudin18.2 (mouse) cells and HEK293T-Claudin18.2 (rat) cells were digested, collected by centrifugation, washed three times with pre-cooled PBS, resuspended in 1% BSA (in PBS), and added to a 96-well pointed bottom plate at 3×10^5 cells/well. Each antibody subjected to gradient dilution was added, and the mixture was incubated at 4° C. for 1 h. The cells were washed three times with pre-cooled PBS, and then 1 μL of a fluorescent secondary antibody (APC: Biolegend-410712) was added to each well. The mixture was incubated at 4° C. for 0.5 h, and the cells were washed three times with pre-cooled PBS, then resuspended, and assayed on a flow cytometer.

The target in experiment [7] is T1, human Claudin18.2. Nature of the experiment: Cell-based ELISA affinity of humanized antibodies on HEK293T-Claudin18.2 (human) cells. In kind it is binding. The conditions noted are these: HEK293T-Claudin18.2 cells. Here is the method: The affinity of the anti-human Claudin18.2 murine monoclonal antibodies was evaluated by cell-based ELISA. The experimental procedures were as follows: The day before the experiment, HEK293T-Claudin18.2 (human) cells were plated in a 96-well plate at 5×10^4 cells/well. On the day of the experiment, the supernatant was removed, the cells in each well were washed once with 300 μL of PBS, and 100 μL of 4% paraformaldehyde was added to each well for fixation at room temperature for 20 min. Paraformaldehyde was then removed, and the cells in each well were washed twice with 300 μL of PBS. 100 μL of 2% BSA (in PBS) was added to each well, and the mixture was blocked at 37° C. for 2 h. After removing the blocking solution, each antibody subjected to gradient dilution (diluted with 2% BSA (in PBS), starting at […], in a 3-fold gradient, for a total of 11 concentration points) was added to the plate at 100 μL/well, and the mixture was incubated at 37° C. for 2 h. The supernatant was removed, and the cells in each well were washed three times with 300 μL of PBST. 100 μL of an anti-mouse IgG HRP secondary antibody (Jackson, cat #115-035-003) in 2% BSA was added to each well, and the mixture was incubated at 37° C. for 1 h. The secondary antibody was then removed, and the cells in each well were washed five times with 300 μL of PBST, followed by the addition of 100 μL of a TMB substrate (Huzhou InnoReagents Co., Ltd.) per well for color development for 5-20 min. The reaction was stopped by adding 50 μL of 2 N HCl to each well, and OD450 nm values were read on a microplate reader (manufacturer: MD, model: SpectraMax). The values obtained were plotted by GraphPad Prism to calculate the EC50 value.
The affinity of the anti-human Claudin18.2 humanized monoclonal antibodies was determined by cell-based ELISA. The cell-based ELISA was conducted as described in Example I-3.

B1: 2D3A11-HZ1: humanized anti-Claudin18.2 antibody, VH SEQ ID NO: 38, VL SEQ ID NO: 39 (antibody, V domains shown)
VH: QVQLVQSGAEVKKPGASVKVSCKASGYTFTSYVVHWVRQAPGQGLEWMGYINPYNADSKYSQEFQGRATLTSDKSASTAYMELSSLRSEDMAVYYCSRSYYGNSFDVWGQGTLVTVSS
VL: DIVMTQSPDSLAVSLGERATINCKSSQSLLNSGNQKNYLTWYQQKPGQSPKLLFFWASTRQSGVPDRFSGSGSGTDFTLTISSLQAEDVAVYYCQNDYYFPFTFGQGTKVEIK
With B1, the “Affinity detected by cell-based ELISA (EC50, ng/mL) L929-Claudin18.2” value with human Claudin18.2 [1] was 17.12 ± 0.85(N = 2) ng/mL. For the same molecule, in experiment [2], the “CDC activity EC50” value amounted to 1.904 µg/mL. In the experiment with human Claudin18.1, the “Mean APC fluorescence signal value” is 281, the “Median APC fluorescence signal value” stood at 233 and the “Positive rate (%)” value amounted to 0.69%. Besides, in the experiment with human Claudin18.2 [3], the “HEK293T-Claudin18.2 EC50” value was 0.3687 µg/mL and the “HEK293T-Claudin18.2 Maximum signal value” was 132603. The “ADCC activity EC50” value in experiment [4] turned out to be 0.04791 µg/mL. In the experiment with human Claudin18.2 [5], the “NUCG4 EC50” value amounted to 0.09518 µg/mL. Further, the “NUCG4 Maximum signal value” with human Claudin18.2 [5] (OD450) is 0.316. Further, in experiment [6], the “HEK293T-Claudin18.2 (cynomolgus monkey) EC50” value turned out to be 0.1719 µg/mL. Further, in the experiment with human Claudin18.2 [7], the “Affinity detected by cell-based ELISA (EC50, ng/mL) HEK293T-Claudin18.2” value is 12.67 ± 2.1(N = 2) ng/mL.
